The source of these data is patent US20100135991A1 (published 2010).

The target in assay [1] is T1, human ORP150-3x Flag with deletion of amino acids 673-752 (human, UniProt Q9Y4L1 33-999).
T1 construct: Deletion mutant made by overlapping PCR, expressed in Flp-In CHO cells
T1 sequence: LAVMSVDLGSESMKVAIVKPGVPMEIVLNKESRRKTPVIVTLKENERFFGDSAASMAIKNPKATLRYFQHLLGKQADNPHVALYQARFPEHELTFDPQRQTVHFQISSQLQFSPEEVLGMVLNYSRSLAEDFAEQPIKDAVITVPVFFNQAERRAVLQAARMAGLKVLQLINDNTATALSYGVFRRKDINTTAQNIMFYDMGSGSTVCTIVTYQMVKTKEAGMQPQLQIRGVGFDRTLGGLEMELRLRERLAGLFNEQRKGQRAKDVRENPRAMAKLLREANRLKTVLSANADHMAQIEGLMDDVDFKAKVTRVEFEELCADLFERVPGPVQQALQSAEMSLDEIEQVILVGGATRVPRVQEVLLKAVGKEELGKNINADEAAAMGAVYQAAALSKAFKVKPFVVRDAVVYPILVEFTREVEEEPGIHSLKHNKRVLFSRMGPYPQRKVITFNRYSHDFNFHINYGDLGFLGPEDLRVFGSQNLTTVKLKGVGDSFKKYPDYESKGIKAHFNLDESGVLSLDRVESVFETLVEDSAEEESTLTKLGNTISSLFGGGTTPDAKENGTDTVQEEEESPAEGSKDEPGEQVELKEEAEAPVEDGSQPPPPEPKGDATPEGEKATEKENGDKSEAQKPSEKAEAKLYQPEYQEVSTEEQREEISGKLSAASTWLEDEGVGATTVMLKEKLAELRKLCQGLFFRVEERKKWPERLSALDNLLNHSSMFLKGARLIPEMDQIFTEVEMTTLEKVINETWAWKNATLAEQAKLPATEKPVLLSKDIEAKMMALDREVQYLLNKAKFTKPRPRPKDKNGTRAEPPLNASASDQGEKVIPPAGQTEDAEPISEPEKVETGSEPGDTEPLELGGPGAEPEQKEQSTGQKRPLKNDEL
The experiment in a line: anti-FLAG capture ELISA and Western blot. The protocol: (§1) Binding of 5F4 to the ORP150 wild type or mutant proteins generated from the supernatant of the transfected cells were tested using ELISA assay by coating the surface with anti-FLAG antibody, allowing binding of the ORP150 proteins in the supernatant to the anti-FLAG antibody, and detecting binding of 5F4 to the ORP150 proteins.
(§2) Binding of 5F4 to the wild type or the mutant ORP150 proteins from the supernatant and cell lysates was also tested using Western blot assays by immunoprecipitation the ORP150 proteins from the supernatant or cell lysates using anti-FLAG antibody, and detecting binding of 5F4 to the ORP150 proteins on the Western blot. The anti-Flag M2 affinity gel (Sigma, Cat. No. A2220) was used to immuno-precipitate the recombinant human ORP150 from the supernatant and cell lysates of the transfected cells. The IP products were subjected to SDS-PAGE and then transferred onto nitrocellulose membrane for Western blotting. […] The blotting signal was detected with Immobilon Western-Chemiluminescent HRP Substrate kits (Millipore, Cat. No. WBKLS0500)
(§3) Based on the Western blotting with anti-FLAG antibody, all the deletion mutants of hORP150 were successfully expressed in Flp-In™ CHO Cells. […] To further characterize the epitope, additional mutant ORP150 proteins were generated. […]

The target of assay [2] is T2, human ORP150-3x Flag with deletion of amino acids 723-732 (human, UniProt Q9Y4L1 33-999).
T2 sequence: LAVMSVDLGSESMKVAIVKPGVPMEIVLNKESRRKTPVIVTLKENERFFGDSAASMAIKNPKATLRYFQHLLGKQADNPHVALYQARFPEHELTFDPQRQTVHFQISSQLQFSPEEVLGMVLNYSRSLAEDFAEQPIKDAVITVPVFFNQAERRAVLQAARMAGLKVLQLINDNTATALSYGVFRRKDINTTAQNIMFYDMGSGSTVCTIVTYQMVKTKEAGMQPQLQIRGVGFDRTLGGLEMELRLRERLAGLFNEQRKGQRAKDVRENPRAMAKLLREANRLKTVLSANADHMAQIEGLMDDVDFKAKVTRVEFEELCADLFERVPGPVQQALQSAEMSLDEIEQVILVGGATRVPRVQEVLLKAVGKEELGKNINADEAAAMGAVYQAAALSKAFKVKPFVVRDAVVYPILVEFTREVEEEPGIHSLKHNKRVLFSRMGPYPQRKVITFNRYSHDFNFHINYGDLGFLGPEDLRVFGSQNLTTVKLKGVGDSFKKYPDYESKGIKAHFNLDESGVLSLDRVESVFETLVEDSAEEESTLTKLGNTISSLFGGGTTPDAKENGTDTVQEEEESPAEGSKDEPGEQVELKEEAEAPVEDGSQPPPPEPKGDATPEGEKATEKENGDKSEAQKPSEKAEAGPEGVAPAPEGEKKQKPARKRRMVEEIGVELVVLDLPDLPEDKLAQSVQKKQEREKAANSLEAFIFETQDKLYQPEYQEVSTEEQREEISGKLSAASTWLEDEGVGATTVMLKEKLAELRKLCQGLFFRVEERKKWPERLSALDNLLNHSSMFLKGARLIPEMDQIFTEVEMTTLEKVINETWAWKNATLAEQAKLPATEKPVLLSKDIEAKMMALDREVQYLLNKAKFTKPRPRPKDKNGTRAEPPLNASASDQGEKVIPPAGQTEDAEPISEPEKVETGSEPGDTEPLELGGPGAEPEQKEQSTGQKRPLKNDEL
The experiment in a line: anti-FLAG capture ELISA and Western blot. The procedure:
as §1, §2, §3

Assay [3] addresses T3, zinc-binding alcohol dehydrogenase domain containing 2 (UniProt Q8N4Q0 1-377, limits assumed).
T3 construct: also called unrelated protein
T3 sequence (looked up): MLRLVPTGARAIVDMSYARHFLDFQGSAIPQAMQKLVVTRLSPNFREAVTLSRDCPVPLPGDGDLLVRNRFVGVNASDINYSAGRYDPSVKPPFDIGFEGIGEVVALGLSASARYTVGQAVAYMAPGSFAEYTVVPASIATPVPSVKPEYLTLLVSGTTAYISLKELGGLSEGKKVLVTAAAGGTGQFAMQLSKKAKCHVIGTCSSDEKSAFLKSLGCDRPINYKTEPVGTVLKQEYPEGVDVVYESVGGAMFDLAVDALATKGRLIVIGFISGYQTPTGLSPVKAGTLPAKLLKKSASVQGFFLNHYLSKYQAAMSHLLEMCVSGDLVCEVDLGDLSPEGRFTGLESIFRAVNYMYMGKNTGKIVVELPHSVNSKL
The experiment in a line: Western blot. The protocol: Western blot was performed to confirm the binding specificity of antibody 3B6.1, 6A4.28 and 9A6.2. […] The amino acid sequences of the heavy and light chain variable region of antibody 3B6.1 (IgM, K), 6A4.28 (IgM, K) and 9A6.2 (IgM, K) are shown in FIGS. 3A and 3B, 4A and 4B, and 5A and 5B, respectively.

B1: monoclonal antibody 5F4 (antibody, mouse IgM, V domains shown)
VH: QIQLVQSGPELKKPGETVKISCKASDYTFTDYSMHWVKQAPGKGLKWMGWINTETGEPTYADDFKGRFAFPLETSASTAYLQINNLKNEDTATYFCARNHGYNLAYWGQGTLVTVSA
VL: DIVMTQSQKFMSTSVGDRVSLTCKSSQNVRTAVTWYQQKPGQSPKALIYLASNRHTGVPDRFTGSGSGTDFTLTISNVQSEDLADYFCLQHWNYPLTFGGGTKLEIK
notes: Mouse IgM, kappa, from a hybridoma; also called m5F4; murine 5F4
Regarding B1, the binding result in assay [1] and in assay [2] was “no binding” throughout.

B2: antibody 9A6.2 (antibody, mouse IgM, V domains shown)
VH: EVKLVESGGGLVKPGGSLKLSCAASGFTFSSYAMSWVRQTPEKRLEWVASISSGGSTYYPDSVKGRFTISRDNARNILYLQMSSLRSEDTAMYYCARGRGYYAYYFDYWGQGTTLTVSS
VL: ETTVTQSPASLSVATGEKVTIRCITSTDIDDDMNWYQQKPGEPPKLLISEGNTLRPGVPSRFSSSGYGTDFVFTIENTLSEDVADYYCLQSDNMPFTFGSGTKLEIK
notes: Mouse IgM, kappa
B2: in assay [3], the binding result is reported as “no binding”.
